Experiment [1] addresses T1, BC2T W10S peptide (BC2TW10X library) (human).
T1 construct: also called W10 permutant S
T1 peptide: Ac-PDRKAAVSHSQQ-NH2
Put plainly: BC2TW10X library pulldown with immobilized Nb, LC-MS of the supernatant. How it is done:
(§1) To investigate the binding specificity of the BC2T and derived mutants peptide libraries for each amino acid position of the sequence […] (SEQ ID NO:4) were synthesized with acetyl and amide groups located at the N-termini or C-termini respectively (Intavis). […] Incubations were performed in 300 μl PBS/0.01% CHAPS for 1 h on a HulaMixer (Life Technologies). Subsequent to a centrifugation step 10 μl supernatant were analyzed in a LC-MS procedure. Peptides were separated using an UltiMate3000 RSLCnano System (Thermo Scientific), composed of a C18 PepMap100μ-Precolumn (300 μm×5 mm; particle size: 5 μm; pore size: 100 Å—Thermo Scientific) and a C18 analytical column (Acclaim Rapid Separation LC (RSLC) Column: 150 mm×5 mm; particle size: 2.2 μm; pore size: 100 Å—Thermo Scientific). A step gradient was applied starting at 8% and ending after 20 min at 30% eluent B (80% acetonitrile, 20% H₂O, 0.1% formic acid). Peptides were analyzed using a FULL-MS-strategy detected by a Q Exactive Plus mass spectrometer (Thermo Scientific). As maximal injection time 100 ms was chosen while setting the AGC target to 3E6. The resolution was set to 70.000. Half-maximal signal areas were referenced to control precipitation approaches using a GFP-specific nanobody immobilized on agarose beads. All experiments were done in triplicates.

In experiment [2] the target is T2, BC2T W10R peptide (BC2TW10X library) (human).
T2 construct: also called W10 permutant R
T2 peptide: Ac-PDRKAAVSHRQQ-NH2
The experiment is described as above. Here is the method: as §1

For experiment [3], the target named is T3, BC2T W10G peptide (BC2TW10X library) (human).
T3 construct: also called W10 permutant G
T3 peptide: Ac-PDRKAAVSHGQQ-NH2
The experiment is described as above. How it is done: as §1

In experiment [4] the target is T4, BC2T W10C peptide (BC2TW10X library) (human, also: Abu described as gamma-amino butyric acid).
T4 construct: also called W10 permutant C(Abu)
T4 peptide: Ac-PDRKAAVSH[GABA]QQ-NH2
Described as above. How it is done:
as §1

For experiment [5], the target named is T5, BC2T W10N peptide (BC2TW10X library) (human).
T5 construct: also called W10 permutant N
T5 peptide: Ac-PDRKAAVSHNQQ-NH2
The experiment is described as above. How it is done:
as §1

In experiment [6] the target is T6, BC2T W10F peptide (BC2TW10X library) (human).
T6 construct: also called W10 permutant F
T6 peptide: Ac-PDRKAAVSHFQQ-NH2
Described as above. How it is done: as §1

The target of experiment [7] is T7, BC2T W10H peptide (BC2TW10X library) (human).
T7 construct: also called W10 permutant H
T7 peptide: Ac-PDRKAAVSHHQQ-NH2
The description is as above. How it is done: as §1

The target of experiment [8] is T8, BC2T W10P peptide (BC2TW10X library) (human).
T8 construct: also called W10 permutant P
T8 peptide: Ac-PDRKAAVSHPQQ-NH2
The description is as above. How it is done: as §1

The target in experiment [9] is T9, BC2T W10T peptide (BC2TW10X library) (human).
T9 construct: also called W10 permutant T
T9 peptide: Ac-PDRKAAVSHTQQ-NH2
The description is as above. How it is done: as §1

For experiment [10], the target named is T10, BC2T K4E (human).
T10 construct: position 4 library, row E
T10 peptide: Ac-PDREAAVSHWQQ-NH2
Put plainly: library pulldown, LC-MS of supernatant; ratio vs GFP-Nb control (0=captured, 1=not captured). In short, it runs like this:
(§2)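 Unbound peptide left in supernatant after 1 h pulldown in PBS/0.01% CHAPS measured by reversed-phase LC-MS (8–30% eluent B gradient, 20 min).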

For experiment [11], the target named is T11, BC2T V7E.
T11 construct: positional scanning library member
T11 peptide: Ac-PDRKAAESHWQQ-NH2
In words: positional peptide library pulldown on immobilised Nb, LC-MS of supernatant; signal ratio to control GFP-Nb (1 = not captured, near 0 = captured). An outline of the steps:
as §2

Experiment [12] deals with T12, BC2T A5S.
T12 construct: positional scanning library member
T12 peptide: Ac-PDRKSAVSHWQQ-NH2
The experiment is described as above. In short, it runs like this: as §2

Experiment [13] deals with T13, BC2T A5P.
T13 construct: positional scanning library member
T13 peptide: Ac-PDRKPAVSHWQQ-NH2
The description is as above. An outline of the steps: as §2

Experiment [14] concerns the target T14, BC2T A5N.
T14 construct: positional scanning library member
T14 peptide: Ac-PDRKNAVSHWQQ-NH2
Described as above. An outline of the steps: as §2

Experiment [15] has as its target T15, BC2T K4W.
T15 construct: positional scanning library member
T15 peptide: Ac-PDRWAAVSHWQQ-NH2
Described as above. In short, it runs like this:
as §2

For experiment [16], the target named is T16, BC2T P1K.
T16 construct: positional scanning library member
T16 peptide: Ac-KDRKAAVSHWQQ-NH2
Described as above. An outline of the steps:
as §2

For experiment [17], the target named is T17, BC2T D2Y.
T17 construct: positional scanning library member
T17 peptide: Ac-PYRKAAVSHWQQ-NH2
Described as above. An outline of the steps: as §2

This is an account of results in patent US20170137467A1 (CHROMOTEK, published 2017).

Residue numbers refer to the chain shown, from its start. Square brackets hold non-standard residues; d marks the D form. GABA = NCCCC(=O)O

B1: BC2 nanobody (VHH)
VHH: QVQLVESGGGLVQPGGSLTLSCTASGFTLDHYDIGWFRQAPGKEREGVSCINNSDDDTYYADSVKGRFTIFMDNAKDTVYLQMNSLKPEDTAIYYCAEARGCKRGRYEYDFWGQGTQVTVSS
notes: Alpaca VHH, 122 aa; also called BC2-Nb; BC2 nanotrap (BC2-Nb immobilized on agarose/Sepharose beads); not shown: C-terminal 6xHis-tag added by the pHEN6 vector
Regarding B1, the binding result in experiment [1], in [2], in experiment [3], in experiment [4], in experiment [5] and in [6] was “no binding” throughout. In addition, the binding result in experiment [7], in experiment [8] and in experiment [9] was “no binding” throughout.

B2: BC2 nanobody (BC2-Nb) (VHH)
VHH: B1 VHH
notes: immobilised on agarose/sepharose beads in this assay; also called BC2 nanotrap (immobilised form); not shown: C-terminal 6xHis-tag added by pHEN6 vector
Turning to B2, the ratio in [10] was determined as 0.5.

B3: BC2-NbR106E (VHH)
VHH: B1 VHH with R106E
notes: headlock mutant of BC2-Nb; immobilised on beads in this assay
In the case of B3, the ratio was determined as 0.9 in [11]; 0.2 in experiment [12]; 0.2 in experiment [13]; 0.3 in experiment [14]; 0.7 in [15]; 0.3 in experiment [16]. In [17], the ratio is 0.1.
